Values quoted from earlier work, collected in publication PMC4705221.
Read-outs that look alike come from different tables or passages of the source.

What was measured:
MK2 (Homo sapiens) [1] = molecular target: MK2 (Homo sapiens) (UniProt P49137)
MK2 (Homo sapiens) [2] = molecular target: MK2 (Homo sapiens) (UniProt P49137); remark: listed apart in the source

Sequence of UniProt P49137 (P49137 whole entry): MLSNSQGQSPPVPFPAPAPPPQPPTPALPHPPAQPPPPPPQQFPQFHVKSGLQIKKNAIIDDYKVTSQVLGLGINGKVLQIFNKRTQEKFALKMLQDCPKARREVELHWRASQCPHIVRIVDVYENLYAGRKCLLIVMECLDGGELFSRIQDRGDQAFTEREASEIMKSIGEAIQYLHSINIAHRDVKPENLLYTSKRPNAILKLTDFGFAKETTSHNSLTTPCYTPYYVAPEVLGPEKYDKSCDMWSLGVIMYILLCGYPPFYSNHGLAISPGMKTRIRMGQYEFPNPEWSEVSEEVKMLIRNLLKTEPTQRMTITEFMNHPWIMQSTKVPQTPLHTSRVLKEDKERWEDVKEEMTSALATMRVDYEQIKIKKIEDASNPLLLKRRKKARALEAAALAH

For p38α (from UniProt Q16539), the Kd (MK2 (Homo sapiens) [1]) is given as 60 nM and the Kd (MK2 (Homo sapiens) [2]) is given as 2.5 nM.
